Test results published in paper PMC12462478 (Nature Communications, 2025).

Molecular target: human LGR4 (residues 25–833), called full-length LGR4 (human, UniProt Q9BXB1 25-833)
Assay: cryo-EM structure

B1: RSPO2(FU), FU domain of RSPO2 (residues 37–143) (domain or fragment)
chain: NPICKGCLSCSKDNGCSRCQQKLFFFLRREGMRQYGECLHSCPSGYYGHRAPDMNRCARCRIENCDSCFSKDFCTKCKVGFYLHRGRCFDECPDGFAPLEETMECVE
  stoichiometry N: 1
